The series in a line: label from the status in PepcDB records.
For the sequence “MSATFSPTAVTDLKDIQDVERLMGRIKEARAAVGEVIFGQEAVVDEVLVTLLAGGHALLIGLPGLAKTKLVQTLGTVVGLRDKRVQFTPDLMPADILGSEVLEEDAAGQRGFRFLPGPVFCQLLMADEINRASPRTQSALLQAMQEHRVSVAGHYHDLPAPFHVLATQNPIEQEGTYPLPEAQLDRFLMQVDVGYPDEAAERRMLAATTGVHQPEARAVMTPAELQAAQALVRRVPVGDSVVDAILSLVRAGRPESSPLPEVRDWVAWGPGPRASQALTLAVRARALLDGRFAPSIEDVIALAHPILRHRMALSFGARADGVTLGRVVDRLIDKIALEHHHHHH”, the protein production result is listed as “not failed”. To “MSATLQDHTVAFRDPALTDIARAIAHGDVARIKALAPTVDLAAHGDQNVTLLEWAIWNEQPRALAALLDAGADPSLPGMDQETVVHMAAMAQDPEYLQILLQHKAPIDVVSARAGWTPLFRAMQSKRDAQIDLLIKAGADVQRVDHTGNSLLHLAAQSGAASPAVLTLLNAGVDPAVRNAQQKTFQAYFFTTPDRLLNASGQQVRSEVRAWLNAHNIPVESSR” belongs “failed”; to “MSAVCGGAARMLRTPGRHGYAAEFSPYLPGRLACATAQHYGIAGCGTLLILDPDEAGLRLFRSFDWNDGLFDVTWSENNEHVLITCSGDGSLQLWDTAKAAGPLQVYKEHAQEVYSVDWSQTRGEQLVVSGSWDQTVKLWDPTVGKSLCTFRGHESIIYSTIWSPHIPGCFASASGDQTLRIWDVKAAGVRIVIPAHQAEILSCDWCKYNENLLVTGAVDCSLRGWDLRNVRQPVFELLGHTYAIRRVKMESCPVTQTRSQLTATSAFWVQAVLLPQPTE”, “failed”; to “MSAVTESVLESIISPVTMSEFLEEYWPVKPLVARGEVERFTSIPGFEKVRTLENVLAIYNNPVMVVGDAVIEESEGITDRFLVSPAEALEWYEKGAALEFDFTDLFIPQVRRWIEKLKAELRLPAGTSSKAIVYAAKNGGGFKAHFDAYTNLIFQIQGEKTWKLAKNENVSNPMQHYDLSEAPYYPDDLQSYWKGDPPKEDLPDAEIVNLTPGTMLYLPRGLWHSTKSDQATLALNITFGQPAWLDLMLAALRKKLISDNRFRELAVNHQSLHESSKSELNGYLESLIQTLSENAETLTPEQIFQSQDSDFDPYQSTQLVFRQLLTSYKF”, “not failed”. To “MSCFYLDLLKIKDPSFMKRLDIQELEALAADIRAFLITSTSKSGGHIGPNLGVVELTIALHYSFNSPKDKFIWDVGHQSYVHKILTGRANQFGTLREHGGLDGFPKRKESIHDVFETGHSSTSLSAAAGMVIARDIKKEDFYVIPIIGDGALTGGMALEALNHIGDMGKDMIVILNDNDMSIAPNVGAIHNILGKLRTSDTSKQTKTNVDGAFFEELGFMYLGPIDGHDIEEVITNLELAKRAKGPVLLHIVTKKGKGYQPAELDSRGTWHGTGPYKVETGSFIKPAKRAASWSSVISNELIRLAEMDERIVAITPAMPVGSKLEKFAKAFPERFFDVGIAEQHATTMAAGLATQGMKPFLAIYSTFLQRAYDQLVHDVCRQKLNVVIGIDRAGLVGADGETHQGIFDISFLNSIPNMTISMPKDEVEARQLMDTAFSYNDGPFAIRYPRGEAPGVQVVESNTLIPIGQWETIIQPLDAVILTFGPTIELALKAAEQLEIEGYRVGVINARYIKPLDEALLHKILKQKIPILTVEESLLKGGFGASVLEFIEANNYRDVIMHRIGLPDEFISHGSVSIILESFGISTTGLVLKIKEMLAQSGKLRAKRL” belongs “failed”; to “MSCHLSYLEGTMEFMISGRNLTVSDRFREYAGEKISKIESLGDKVQRVDAKVSKETNPRQTPGELTVEVTVLGRGPVIRAEATAADKFAAFDLAYNKLLERLRRAKDRKKVHHGRHTPKAVREATATLEPASASEPLYVEASNHQESAPPVDERSPYDIENDIPAGDSPVLIRRKVFPAASLTLDDAVDNMELVGHNFYLFLDKETNAPSVVYRRSGWTYGVITLDSTCEPGEEAVEEKIHAYRSDDQAATAK”, “failed”.

In the case of “MSCVHYKFSSKLNYDTVTFDGLHISLCDLKKQIMGREKLKAADCDLQITNAQTKEEYTDDNALIPKNSSVIVRRIPIGGVKSTSKTYVISRTEPAMATTKAIDDSSASISLAQLTKTANLAEANASEEDKIKAMMSQSGHEYDPINYMKKPLGPPPPSYTCFRCGKPGHYIKNCPTNGDKNFESGPRIKKSTGIPRSFMMEVKDPNMKGAMLTNTGKYAIPTIDAGRLLFHKLGTMGHKQIDTYFWNRGDVYGATATQITHLREAYAIGKKEKPPFLPEEPSSSSEEDDPIPDELLCLICKDIMTDAVVIPCCGNSYCDECIRTALLESDEHTCPTCHQNDVSPDALIANKFLRQAVNNFKNETGYTKRLRKQLPPPPPPIPPPRPLIQRNLQPLMRSPISRQQDPLMIPVTSSSTHPAPSISSLTSNQSSLAPPVSGNPSSAPAPVPDITATVSISVHSEKSDGPFRDSDNKILPAAALASEHSKGTSSIAITALMEEKGYQVPVLGTPSLLGQSLLHGQLIPTTGPVRINTARPGGGRPGWEHSNKLGYLVSPPQQIRRGERSCYRSINRGRHHSERSQRTQGPSLPATPVFVPVPPPPLYPPPPHTLPLPPGVPPPQFSPQFPPGQPPPAGYSVPPPGFPPAPANLSTPWVSSGVQTAHSNTIPTTQAPPLSREEFYREQRRLKEEEKKKSKLDEFTNDFAKELMEYKKIQKERRRSFSRSKSPYSGSSYSRSSYTYSKSRSGSTRSRSYSRSFSRSHSRSYSRSPPYPRRGRGKSRNYRSRSRSHGYHRSRSRSPPYRRYHSRSRSPQAFRGQSPNKRNVPQGETEREYFNRYREVPPPYDMKAYYGRSVDFRDPFEKERYREWERKYREWYEKYYKGYAAGAQPRPSANRENFSPERFLPLNIRNSPFTRGRREDYVGGQSHRSRNIGSNYPEKLSARDGHNQKDNTKSKEKESENAPGDGKGNKHKKHRKRRKGEESEGFLNPELLETSRKSREPTGVEENKTDSLFVLPSRDDATPVRDEPMDAESITFKSVSEKDKRERDKPKAKGDKTKRKNDGSAVSKKENIVKPAKGPQEKVDGERERSPRSEPPIKKAKEETPKTDNTKSSSSSQKDEKITGTPRKAHSKSAKEHQETKPVKEEKVKKDYSKDVKSEKLTTKEEKAKKPNEKNKPLDNKGEKKKKK”, the protein production entry is on record as “not failed”. To “MSCWKTINLVKDYGGMRIVLTAVSLMILFFIPEYLAMQLIHPQTVQRGDHALLFAGLLVAAIIAHKILHILPMISKKKLEKKIYWLKMRTWREIPKNMMLVSLLCPFLVITPVLFYAGAAMPSFAHYFCIISSIHFGYCLPDFLFAWKLIKAPKNCFVDQEADDFDILIQK” belongs “failed”; to “MSDAFTDVAKMKKIKEEIKAHEGQVVEMTLENGRKRQKNRLGKLIEVYPSLFIVEFGDVEGDKQVNVYVESFTYSDILTEKNLIHYLD”, “not failed”. To “MSDAPTSPRFSAATSTRLLDHAQLEALCADYDGFLLDLWGVVMDGTEAFPGALAWLARRHAEGRPVWFLSNSSSSVAEMSAGLERLGIRRDWFAGITTSGQLTIDALLQTAEYRRGGIYLAGVGLAQQSWPAEIRERFVEDIAQAALIVGVGSFPQDELEQRFAPLRGATDLPFLCANPDRVVVSGGRTVYGAGMLAELFSEEGGQVSWYGKPDPAAFRIAQRQLEARGARHILFVGDSLVTDVPGALAARIDTLWLGATGIHREALGAEFNGALDEERVRSLLHGYPIRPHFAAPGLV” belongs “failed”; to “MSDDLALTALAASSFSLPELREGQLAGMTALVERRDVLAVMPTGYGKSATYQVAALYLHNKTGRPAVVVSPLIALQEDQLDGLAEHLGEGAGVAINSSRSDAEVEAAWQAVESGQAAFLFLAPEQLSKRETVERIANLDITMFVVDEAHCVSSWGHDFRPDYLELGHVREHLGNPPVIALTATASPPVRDEIVKRLGMTEPVVLVRGFDRPNISLDVVRHQEDKGKRKAVMEQVVALAKAEGLGLLYAATRKATEKYAAKLTEHGLRAEAYHAGRADSDRESIHERFLDDQLDVVVATTAFGMGIDKPNVRFVVHADIPESLDSYYQEIGRAGRDGEPATAILHYRAEDLGLRKFFATHSPDAEALTAVLKVIKNAGAPVPKTALVELTGFPARRVTALVNQLEEAGAVTTGKRGTRLSSKAKLTTLVDRAVELAEARQRVDQSRLTMMRAYAETDACRRQFLLGYFGEDLPEPCGNCDACAEIHDDAGSGSAGHLTSTAENLFPLQSTVIHKEWGPGLVMRHEDDVMTVLFEQEGYKTLSRAAVVEHELLKPA”, “failed”.

As to “MSDFEKQLWKAADKLRKNIDAAEYKHIVLGLIFLRYISDAFEELYEKLQQGEGEYAGADPEDRDEYKAENVFFVPAISRWPYLQSEAKKPDIGKSVDNAMDAIEKENPLLRGVLPKVFARGNLDPTNLGGLIDLVSNVALGDAKSRSADVLGHVFEYFLGEFALAEGKKGGQFYTPRSVVELLVEMLEPYNGRVFDPCCGSGGMFVQSEKFVADHQGKINDISIYGQESNQTTWRLAKMNLAIRSIDSSQVKWNNEGSFLNDVHKDLKADYVIANPPFNDSDWSGDLLRKDGRWKYGVPPAGNANYAWIQHFLYHLGPSGQAGFVLAKGSLTSKSSGEGDIRKELVEARLVDCIVNLPPKLFLNTQIPASLWFLSRNKANGKHRNRTDEILFIDARNMGHLINRRTREFSPEDIQQIAGTYHKWRNPEGNYEDVKGFCNSAPIERVRELGYVLTPGRYVGLPDDEDNFDFNERFSALKAEFEEQLKEEERLNLRIAENLKKVKPA”, the protein production result was “failed”. The same measure for “MSDFNKYCEEAAREALPDSEDEEDIGDEDTCSAQDLAAEFQLKYKPQDEVSVSLQREYVLSLAADQGFSRMAAGLSNSAVHIYNLDSGAGKLENFSYLPPTDSPQSVSICGVRFLDEGPHNILVGTTDGYVRLYDLRLRGEQARFKYTQHPNVPPVPKSLSCFDRNANGRIICCGTEQFHSNAFLVFFDVRERQQMGVYFESHEDDITSLRFHAQNPDLLATGSVDGLVNVFDVKEPDEDEALLNTFNTESSVARLAWHRNVYDKDIISCVTTTGDFKSYECEEGDEVASFERPDVTAAIRRKKAANFNLINAHNQEDGGVFLLAGTNFNKGEILRSVSVTSKNSLQPLANFQGNKQIVRDSLFDSKRSLLFTGGESGIVTVWAQDASGTAFSSEKLKARKEKKSRKQAPY”: “failed”; for “MSDHHHHDHHLGCACCALPLLELLDQPQLSQDEWQRELETLAPELGKRFPRPGQQESAIFHGGSIRPLAAAGPSRVAALGMSGGRIVAMGDLDDVRAAMASHRPFREIDLDGRALLPGLVDPHMHIMPSALFKSWISLSAFGVTRNSQDGEDAQVLNPDYSYQQIKDKLLPAIAQAKQPGAASNWVLGFGVDPSLMREWVDIKASSLDELAPPDDNIAVFLLNASGHIGYANTAAMKEAGLTPEQIKKCEGVLTEANIIQIMGKIPKRILAKDLLRNLLMVLHDAASRGNTMLFDAGLGSSLKEAEVRLLQLIAKLGLSPVRIAGALYSNELTQMRQWMKLYQPDLNSQDDSHFSIKALKLVADGSNQGLTGFQFSPYKNVAQHPVPDVPPIGLFNFKIPDAPSSENENRLPDSLASYLHLALGSGWPVLVHSNGEQAMELVLDSYQEAISATRADARHLRLRVEHASLLTDATLSRMASMGLSPSFLIGHVGYWGYALQNDILGEARTELLDRCKSARDAGIRISLHSDHFVSPLGSLRMAEQAIYRKMEGAPQEEKPVLNKEECLSHEQALAAVTLDAAWQCHMDHLVGSLEPGKLADMVILGQDPLDDGVTDLRHINVHETWRGGARVYANPNTH”: “failed”; for “MSDINKPFLVVIVGPTASGKTELSIELAKQINGEIISGDSMQVYKQMDIGTAKVTNEEMDGIPHYMIDILNPDDSFSVYDFKLRAQALIEDITSRGKIPIIAGGTGLYIQSLIYDYPFDDETVSKEVEQKTQLQLQKLEPLTNQEVHDYLATFDPQSAKDIHPNNRKRVLRAIEYYLNTKKLISSRKKVQQFTENYDTLLIGIEMSRKTLYSRINKRVDIMLGHGLFNEVKNLVEQGYESTQSMQAIGYKELVPVVNGELSIDQAVETLKQHSRQYAKRQLTWFKNKLTVQWFNRETMSLQMMLDEITTQINKRSSKHDCKPQHPRSSTREL”: “failed”. The same measure for “MSDINTVNLINQMKTLAAQAEGIKPDSGLNHASFSSVFQQALNQVNELSQTADSLKTRFEIGDPNVSLGEVMIASQKSNLGFEATLRVRNKLVQAYQDIMNMPV”: “failed”.
